Test results: patent US20050214830A1, “G protein-binding proteins and polynucleotides encoding the same” (Wyeth, priority 1998, published 2005)

Tests used:
[1] = biological target: T1, rat Gαs (Rattus norvegicus, UniProt P63095); assay: Yeast 2-hybrid (Y2H) bioassay for BBP interaction with Gαs; details: BBP intracellular loop as Gal4 DNA-binding domain fusion; C-terminal region of Gα as Gal4 activation domain fusion; compared to vector
T1 construct: fusion proteins containing C-terminal regions of Gα proteins in Y2H assays; expressed in transfected cells; host or cells: yeast strain CY770, plasmid pACT2
T1 sequence (P63095 235-394 limits assumed): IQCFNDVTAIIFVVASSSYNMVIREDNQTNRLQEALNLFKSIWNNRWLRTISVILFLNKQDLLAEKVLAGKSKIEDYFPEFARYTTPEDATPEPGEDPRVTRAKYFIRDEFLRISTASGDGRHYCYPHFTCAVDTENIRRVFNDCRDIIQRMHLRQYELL
From the text: (§1) Yeast 2-hybrid assays. Y2H expression plasmids were constructed in the vectors pAS2 and pACT2 (Wade Harper et al., 1993). Strain CY770 (Ozenberger and Young, 1995) served as the host for Y2H assays. Sequences encoding the BBPI intracellular loop were amplified using the oligonucleotides 5′-CCTTCC ATGGAAGTGGCAGTCGCATTGTCT [SEQ ID NO:24] plus 5′-AACACTCGAG TCAAAACCCTACAGTGCAAAAC [SEQ ID NO:25]. This product, containing BBP1 codons 185 to 217, was digested with NcoI+XhoI and cloned into pAS2 cleaved with NcoI+SaII to generate pOZ339. Sequences encoding the BBP2 intracellular loop were amplified using the oligonucleotides 5′-CCATG GCCACTTTACTCTACTCCTTCTT [SEQ ID NO:26] plus 5′-CTCGAG TCA AAT CCC MG TCC TCC MG CG [SEQ ID NO:27]. […]
(§2) The various combinations of plasmids were transformed into strain CY770 by standard protocols. […] Cells were concentrated by centrifugation, counted and 10-fold serial dilutions made from 10^4 to 10^8 cells per ml in sterile water. […]
(§3) BBP1 contains a structural motif known to be a Gα protein activating sequence in the related G protein-coupled receptors. The intracellular sequences of each BBP were expressed as fusion proteins and assayed. for physical interactions with fusion proteins containing C-terminal regions of Gα proteins in Y2H assays.

[2] = biological target: T2, rat Gαo (Rattus norvegicus, UniProt P59215); assay: Yeast 2-hybrid (Y2H) bioassay for BBP interaction with Gαo; details: BBP intracellular loop as Gal4 DNA-binding domain fusion; C-terminal region of Gα as Gal4 activation domain fusion; compared to vector
T2 construct: fusion proteins containing C-terminal regions of Gα proteins in Y2H assays; expressed in transfected cells; host or cells: yeast strain CY770, plasmid pACT2
T2 sequence (P59215 213-354 limits assumed): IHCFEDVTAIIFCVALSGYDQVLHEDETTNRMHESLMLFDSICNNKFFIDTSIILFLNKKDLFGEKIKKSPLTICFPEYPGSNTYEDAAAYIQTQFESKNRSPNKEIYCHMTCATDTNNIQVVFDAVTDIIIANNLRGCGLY
From the text: as §1, §2, §3

[3] = biological target: T3, rat Gαi2 (Rattus norvegicus, UniProt P04897); assay: Yeast 2-hybrid (Y2H) bioassay for BBP interaction with Gαi2; details: BBP intracellular loop as Gal4 DNA-binding domain fusion; C-terminal region of Gα as Gal4 activation domain fusion; compared to vector
T3 construct: fusion proteins containing C-terminal regions of Gα proteins in Y2H assays; expressed in transfected cells; host or cells: yeast strain CY770, plasmid pACT2
T3 sequence (P04897 213-355 limits assumed): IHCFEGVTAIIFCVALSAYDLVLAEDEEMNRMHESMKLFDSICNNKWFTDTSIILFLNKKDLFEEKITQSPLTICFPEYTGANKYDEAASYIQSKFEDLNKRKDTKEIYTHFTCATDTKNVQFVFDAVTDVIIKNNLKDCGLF
From the text: as §1, §2, §3

[4] = system: Human Ntera2 (Nt2) stem cells; assay: Staurosporine-induced nuclear condensation (apoptosis) in transfected Nt2 stem cells; format: cell-based
From the text: Mammalian expression plasmids. BBP cDNAs were modified by polymerase chain reaction (PCR) for expression from the vector pcDNA3.1 (Invitrogen Corp., Carlsbad, Calif.). BBP1 cDNA was amplified from pBBP1-fl (ATCC #98617); from the third potential translation start site to the translation stop codon, adding a 5′ EcoRI and a 3′ SaII site for cloning. The BBP1 cDNA contains three potential translation starts (codons 1, 30, and 63). The third start site was chosen for the described experiments because the first two potential initiating codons lack appropriate sequence context for efficient translation initiation (see Kozak, 1996), and based on similarities of the protein derived from the third start site with a putative BBP1 orthologue from Drosophila melanogaster (Genbank accession M941984). FIG. 1 depicts this minimal BBP1 translation product to optimize the alignment with the other BBP subtypes. The PCR primers were 5′-TGGTGAATTC GAAAGTGTCG GTCTCAACG ATG G [SEQ ID NO:36] (+strand) and 5′-CTTCGTCGAC TTATGGATATAATTGCGTTTTTC [SEQ ID NO:37] (−strand). The PCR product was digested with EcoRI+SaII and cloned into pcDNA3.1/EcoRI−XhoI to create pOZ363. BBP2 and BBP3 expression plasmids were similarily engineered. BBP2 was amplified from pOZ359 (ATCC #98851; using primers 5′-TTCCGAATTC AAGATGGTGCTAGGTGGTTGCCC [SEQ ID NO:38] (+strand) plus 5′-TTCCCTCGAG TTAGTAAACAGTGCACCAGTTGC [SEQ ID NO:39] (−strand). The PCR product was digested with EcoRI+XhoI and cloned into pcDNA3.1/EcoRI−XhoI to create pFL1 1. BBP3 was amplified from pOZ350 (ATCC #98712 using primers 5′-TTTTGAATTC GCAAG ATG GCG GGA GGG GTG CGC [SEQ ID NO:40] (+strand) plus 5′-TTGGCTCGAG CTAAATGTACAAAGAGCCATCTG [SEQ ID NO:41] (−strand). The PCR product was digested with EcoRI+XhoI and cloned into pcDNA3.1/EcoRI−XhoI to create pFL12. Mutation of the arginine codon within the ‘DRF’ motif of each BBP cDNA was performed using the QuickChange system (Stratagene Co., La Jolla, Calif.). Oligonucleotides were synthesized and purified by Genosys Biotechnologies, Inc. (The Woodlands, Tex.). The R138 codon of BBP1 in pOZ363 was changed to an alanine codon using the oligonucleotide 5′-GG TTGGGAGCAGATGCATTTTACCTTGGATACCC [SEQ ID NO: 42] and its exact reverse complement. The changed nucleotides are underlined. The R138 position of BBP1 in pOZ363 was changed to E using the oligonucleotide 5′-GG TTGGGAGCAGATGAATTTTACCTTGGATACCC [SEQ ID NO:43] and its exact reverse complement. The R167 position of BBP2 in pFL11 was changed to E using the oligonucleotide 5′-CTGGGATGTTTTGGTGTGGAT GM TTC TGT TTG GGA CAC AC [SEQ ID NO:44] and its exact reverse complement. […]

[5] = recombinant expression in Nt2 stem cells, 100 nM staurosporine for 3 hrs

B1: BBP1: novel BAP binding protein, SEQ ID NO:2; two-transmembrane protein with 'DRF' motif; expressed from pOZ363 (protein, listed as Homo sapiens)
chain: MHILKGSPNVIPRAHGQKNTRRDGTGLYPMRGPFKNLALLPFSLPLLGGGGSGSGEKVSVSKMAAAWPSGPSAPEAVTARLVGVLWFVSVTTGPWGAVATSAGGEESLKCEDLKVGQYICKDPKINDATQEPVNCTNYTAHVSCFPAPNITCKDSSGNETHFTGNEVGFFKPISCRNVNGYSYKVAVALSLFLGWLGADRFYLGYPALGLLKFCTVGFCGIGSLIDFILISMQIVGPSDGSSYIIDYYGTRLTRLSITNETFRKTQLYP
physical interaction with Gαs (Y2H growth response) [1]: interacted with all three Gα proteins | physical interaction with Gαo (Y2H growth response) [2]: interacted with all three Gα proteins | physical interaction with Gαi (Y2H growth response) [3]: interacted with all three Gα proteins | cell death induced by staurosporine ([4]; Nt2 transfectants, 24 hr treatment with staurosporine (data not shown)): blocked cell death | apoptosis (percentage of condensed nuclei among EGFP+ transfectants) ([4]; recombinant expression in Nt2 stem cells, 100 nM staurosporine for 3 hrs, controls 45%): 13.5%

B2: 5HT-R: 7-tm domain G protein-coupled serotonin receptor expressed as control in the apoptosis assay (protein, UniProt P08908 1-422, looked up)
5-hydroxytryptamine receptor …: MDVLSPGQGNNTTSPPAPFETGGNTTGISDVTVSYQVITSLLLGTLIFCAVLGNACVVAAIALERSLQNVANYLIGSLAVTDLMVSVLVLPMAALYQVLNKWTLGQVTCDLFIALDVLCCTSSILHLCAIALDRYWAITDPIDYVNKRTPRRAAALISLTWLIGFLISIPPMLGWRTPEDRSDPDACTISKDHGYTIYSTFGAFYIPLLLMLVLYGRIFRAARFRIRKTVKKVEKTGADTRHGASPAPQPKKSVNGESGSRNWRLGVESKAGGALCANGAVRQGDDGAALEVIEVHRVGNSKEHLPLPSEAGPTPCAPASFERKNERNAEAKRKMALARERKTVKTLGIIMGTFILCWLPFFIVALVLPFCESSCHMPTLLGAIINWLGYSNSLLNPVIYAYFNKDFQNAFKKIIKCKFCRQ
suppression of staurosporine-induced nuclear condensation (antiapoptotic activity), in words [4, 5]: had no effect

B3: BBP3: 221 amino acid BBP family protein (short form), SEQ ID NO:6; expressed from pFL12 (protein, listed as Homo sapiens)
chain: MAGGVRPLRGLRALCRVLLFLSQFCILSGGESTEIPPYVMKCPSNGLCSRLPADCIDCTTNFSCTYGKPVTFDCAVKPSVTCVDQDFKSQKNFIINMTCRFCWQLPETDYECTNSTSCMTVSCPRQRYPANCTVRDHVHCLGNRTFPKMLYCNWTGGYKWSTALALSITLGGFGADRFYLGQWREGLGKLFSFGGLGIWTLIDVLLIGVGYVGPADGSLYI
physical interaction with Gαs (Y2H growth response) [1]: strong response | physical interaction with Gαo (Y2H growth response) [2]: none | physical interaction with Gαi (Y2H growth response) [3]: exhibited interaction | suppression of staurosporine-induced nuclear condensation (antiapoptotic activity), in words [4, 5]: suppressed the induction of nuclear condensation to the same levels as BBP1
